Data published in article PMC5430920 (Scientific Reports, 2017).

Target: the molecule itself
Experiment: SEC

B1: Mycobacterium tuberculosis orotate phosphoribosyltransferase (enzyme)
chain: MAGPDRAELAELVRRLSVVHGRVTLSSGREADYYVDLRRATLHHRASALIGRLMRELTADWDYSVVGGLTLGADPVATAIMHAPGRPIDAFVVRKSAKAHGMQRLIEGSEVTGQRVLVVEDTSTTGNSALTAVHAVQDVGGEVVGVATVVDRATGAAEAIEAEGLRYRSVLGLADLGLD
notes: also called MtOPRT; M. tuberculosis OPRTase
stoichiometry N: 2
